Like-named read-outs stand apart in the source and are kept apart here.
T1: CD123-his
T1 construct: also called histidine tagged human CD123; His-tagged CD123 ECD
T1 extracellular domain with C-terminal His tag: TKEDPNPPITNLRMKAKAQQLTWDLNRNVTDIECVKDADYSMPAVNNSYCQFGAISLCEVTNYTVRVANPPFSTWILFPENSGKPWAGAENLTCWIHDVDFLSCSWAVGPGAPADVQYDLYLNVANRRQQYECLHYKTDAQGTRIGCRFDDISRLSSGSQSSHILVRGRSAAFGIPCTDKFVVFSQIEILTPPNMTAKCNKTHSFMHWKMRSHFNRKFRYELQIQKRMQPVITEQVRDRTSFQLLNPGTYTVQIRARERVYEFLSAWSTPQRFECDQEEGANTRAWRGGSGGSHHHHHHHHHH


Tests used:
[1] = target: T2, human CD123 (full-length, on cells) (human, UniProt P26951 19-378); experiment: flow cytometry on HEK 293 cells transfected with full-length CD123; apparent Kd, one-site fit
T2 construct: also called CD123-FL; interleukin-3 receptor alpha chain
Procedure: (§1) Binding of sdAbs to human CD123 was assessed by flow cytometry. […] HEK 293 cells were transiently transfected with a plasmid encoding full-length CD123 (UniProt Accession No. P26951-1; mature form, SEQ ID NO: 1) and used as the positive cell line in FIGS. 2A to 2M, and untransfected HEK 293 cells were used as CD123-negative cells. In FIG. 2N, Molm-13 cells, which express CD123, were used as the positive cell line. Each cell type was plated at 30,000 cells/well in FACS buffer (PBS 1% BSA, 0.1% NaN₃ pH 7.4) on a 96-well round-bottom plate. The sdAbs were diluted in FACS buffer in a 3-fold, 11 point serial dilution. The sdAb dilutions were added to the plated cells, and assay plates were incubated for 30 minutes at 4° C. After washing twice in 150 μL of FACS buffer, cells in each well were resuspended in 100 μL of 1:2000 Alexa Fluor 647-conjugated Anti-Human IgG secondary diluted in FACS buffer and incubated at 4° C. for 30 minutes. The cells were washed twice more, then bound antibody was detected by flow cytometry.
(§2) Flow cytometric analysis was performed on an Intellicyte iQue Plus and fluorescence was plotted as median fluorescence intensity. The apparent affinity (Kd, nM) was determined using one site binding non-linear regression in PRISM graph software.

[2] = target: T2, human CD123 (full-length, on cells); experiment: flow cytometry, HEK 293 cells transfected with full-length CD123 (CD123-FL); Median RL-1H
Procedure: as §1, §2
Target sequence in this assay (P26951 19-378): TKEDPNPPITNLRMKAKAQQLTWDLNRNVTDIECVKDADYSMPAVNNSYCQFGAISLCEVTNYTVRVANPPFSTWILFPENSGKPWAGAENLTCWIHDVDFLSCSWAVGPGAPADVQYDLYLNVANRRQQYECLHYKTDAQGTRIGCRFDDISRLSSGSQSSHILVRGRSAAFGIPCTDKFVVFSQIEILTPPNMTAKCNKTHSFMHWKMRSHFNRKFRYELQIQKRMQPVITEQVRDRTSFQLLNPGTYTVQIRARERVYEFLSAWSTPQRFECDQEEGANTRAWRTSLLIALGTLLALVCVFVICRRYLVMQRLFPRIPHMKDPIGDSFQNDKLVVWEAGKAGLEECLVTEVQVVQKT

[3] = target: T2, human CD123 (full-length, on cells); experiment: flow cytometry blocking assay, sdAb titrated on CD123-expressing HEK-293 cells with a fixed amount of IL-3-mFc
Procedure: (§3) Certain CD123-binding sdAbs were tested for the ability to block CD123 binding to IL-3 by titrating the sdAb onto CD123 expressing HEK-293 cells in the presence of a fixed amount of recombinant IL-3-mFc. Bound IL-3 was detected by flow cytometry using fluorophore conjugated anti-mouse IgG specific secondary antibody.

[4] = target: T1, CD123-his; experiment: BLI, CD123-his captured on Ni-NTA sensors, first sdAb 100 nM
Procedure: (§4) The epitopes of single domain antibodies (sdAbs) that comprise VHH domains that bind CD123 were compared using Bio-Layer Interferometry. 5 ug/mL of histidine tagged human CD123 was immobilized on Nickel-nitrilotriacetic acid (Ni-NTA) coated capture sensors. 100 nM of one sdAb was then loaded onto the CD123 antigen and allowed to come to equilibrium. The sensors were then transferred into 100 nM of a second sdAb.

[5] = target: T1, CD123-his; experiment: BLI, CD123-his on Ni-NTA sensors preloaded with hzA5v2, second sdAb 100 nM
Procedure: as §4

[6] = target: T2, human CD123 (full-length, on cells); experiment: flow cytometry blocking assay, sdAb titrated on CD123-expressing HEK-293 cells with a fixed amount of IL-3-mFc; remark: listed apart in the source
Procedure: as §3

Row | Kd [1] [nM] | EC50 (read off the curve) [2] [nM] | IC50 (read off the curve) [3] [nM] | binding result [4] | binding result [5] | IC50 (read off the curve) [6] [nM] | Binder
1 | 0.97 | ~0.9 | – | – | – | – | 1F5-IgG1 (Fc fusion) QVQLVQSGGGLVQAGGSLTVSCTASGRAINMYAMGWFRQAPGKEREFVAAINWNGAYTQYADSVKGRFTISRDNAKNTMYLQMNSLKPEDTAQYYCSADADYNTYVSPNKRVSYWGQGTQVTVDKTHTCPPCPAPGGPSVFLFPPKPKDTLMISRTPEVTCVVVDVSHEDPEVKFNWYVDGVEVHNAKTKPREEQYNSTYRVVSVLTVLHQDWLNGKEYKCKVSNKALPAPIEKTISKAKGQPREPQVYTLPPSRDELTKNQVSLTCLVKGFYPSDIAVEWESNGQPENNYKTTPPVLDSDGSFFLYSKLTVDKSRWQQGNVFSCSVMHEALHNHYTQKSLSLSPGK
2 | 1.37 | 1 to 2 | – | – | – | – | 4F2-IgG1 (Fc fusion) EVQLVQSGGGLVQAGGSLRLSCAASGRTVSNYPMAWFRQAPGKEREFVAHISWSGITSILNSVNDRFTISRDNAKNTIYLQMNSLKPEDTAVYYCAAAQRPTAGPKGPFGYWGQGTQVTVDKTHTCPPCPAPGGPSVFLFPPKPKDTLMISRTPEVTCVVVDVSHEDPEVKFNWYVDGVEVHNAKTKPREEQYNSTYRVVSVLTVLHQDWLNGKEYKCKVSNKALPAPIEKTISKAKGQPREPQVYTLPPSRDELTKNQVSLTCLVKGFYPSDIAVEWESNGQPENNYKTTPPVLDSDGSFFLYSKLTVDKSRWQQGNVFSCSVMHEALHNHYTQKSLSLSPGK
3 | 0.12 | – | 0.3 to 0.8 | – | – | – | A5-IgG1 (Fc fusion, No linker between VHH and Fc is stated; also called sdAb A5) EVQLVQSGGGLVQAGGSLRLSCAVSGGTFSSYGMAWFRQPPGKEREWVASNSWIAGSTYYAGSVKGRFTISRDNAKNTVYLQMNSLKPEDTAVYYCAADLLATADDEYDYWGQGTQVTVDKTHTCPPCPAPGGPSVFLFPPKPKDTLMISRTPEVTCVVVDVSHEDPEVKFNWYVDGVEVHNAKTKPREEQYNSTYRVVSVLTVLHQDWLNGKEYKCKVSNKALPAPIEKTISKAKGQPREPQVYTLPPSRDELTKNQVSLTCLVKGFYPSDIAVEWESNGQPENNYKTTPPVLDSDGSFFLYSKLTVDKSRWQQGNVFSCSVMHEALHNHYTQKSLSLSPGK
4 | 0.11 | – | – | binds | – | – | hzA5v2-IgG1 (Fc fusion, also called hzA5v2 sdAb) EVQLVESGGGEVQPGGSLRLSCAASGGTFSSYGMAWFRQAPGKEREWVASNSWIAGSTYYAESVKGRFTISRDNAKNTVYLQMSSLRAEDTAVYYCAADLLATADDEYDYWGQGTLVTVDKTHTCPPCPAPGGPSVFLFPPKPKDTLMISRTPEVTCVVVDVSHEDPEVKFNWYVDGVEVHNAKTKPREEQYNSTYRVVSVLTVLHQDWLNGKEYKCKVSNKALPAPIEKTISKAKGQPREPQVYTLPPSRDELTKNQVSLTCLVKGFYPSDIAVEWESNGQPENNYKTTPPVLDSDGSFFLYSKLTVDKSRWQQGNVFSCSVMHEALHNHYTQKSLSLSPGK
5 | 0.96 | ~0.9 | – | binds | – | – | hz1B11v28-IgG1 (Fc fusion, also called hz1B11v28 sdAb) EVQLVESGGGEVQPGGSLRLSCAASGRTQSAVAMGWFRQAPGKDRDFVAAIRWSGGNTYYAESVEGRFTISRDNAKNTVYLQMSSLRAEDTAVYSCAISLNHFGLYDYWGQGTLVTVDKTHTCPPCPAPGGPSVFLFPPKPKDTLMISRTPEVTCVVVDVSHEDPEVKFNWYVDGVEVHNAKTKPREEQYNSTYRVVSVLTVLHQDWLNGKEYKCKVSNKALPAPIEKTISKAKGQPREPQVYTLPPSRDELTKNQVSLTCLVKGFYPSDIAVEWESNGQPENNYKTTPPVLDSDGSFFLYSKLTVDKSRWQQGNVFSCSVMHEALHNHYTQKSLSLSPGK
6 | 0.52 | ~0.6 | – | – | – | – | 1B11-IgG1 (Fc fusion) QVQLVQSGGGSVQAGGSLRLSCAAAGRTQSAVAMGWFRQDPGKDRDFVAAIRWSGGNTYYADSAEGRFTISRDNAKNTVYLQMDSLKPEDTAVYSCAISMNHFGMYDYWGQGTQVTVDKTHTCPPCPAPGGPSVFLFPPKPKDTLMISRTPEVTCVVVDVSHEDPEVKFNWYVDGVEVHNAKTKPREEQYNSTYRVVSVLTVLHQDWLNGKEYKCKVSNKALPAPIEKTISKAKGQPREPQVYTLPPSRDELTKNQVSLTCLVKGFYPSDIAVEWESNGQPENNYKTTPPVLDSDGSFFLYSKLTVDKSRWQQGNVFSCSVMHEALHNHYTQKSLSLSPGK
7 | 0.59 | ~0.7 | – | – | binds | – | hzF3v22-IgG1 (Fc fusion, also called hzF3v22 sdAb) EVQLVESGGGLVQPGGSLRLSCAASGRAINAYNMGWFRQAPGKGREFVSAINWNAARTYYAESVKGRFTISRDNAKNTLYLQMSSLRAEDTAVYYCAASGRWSAAVPSGEDQYNFWGQGTLVTVDKTHTCPPCPAPGGPSVFLFPPKPKDTLMISRTPEVTCVVVDVSHEDPEVKFNWYVDGVEVHNAKTKPREEQYNSTYRVVSVLTVLHQDWLNGKEYKCKVSNKALPAPIEKTISKAKGQPREPQVYTLPPSRDELTKNQVSLTCLVKGFYPSDIAVEWESNGQPENNYKTTPPVLDSDGSFFLYSKLTVDKSRWQQGNVFSCSVMHEALHNHYTQKSLSLSPGK
8 | 0.93 | ~1 | – | – | – | – | hzF3v26-IgG1 (Fc fusion) EVQLVESGGGLVQPGGSLRLSCRASGRAINAYNMGWFRQAPGKGREFVSAINWNAARTYYAESVKGRFTISRDNAKNTLYLQMSSLRAEDTAVYYCAASGRWSAAVPSGEDQYNFWGQGTLVTVDKTHTCPPCPAPGGPSVFLFPPKPKDTLMISRTPEVTCVVVDVSHEDPEVKFNWYVDGVEVHNAKTKPREEQYNSTYRVVSVLTVLHQDWLNGKEYKCKVSNKALPAPIEKTISKAKGQPREPQVYTLPPSRDELTKNQVSLTCLVKGFYPSDIAVEWESNGQPENNYKTTPPVLDSDGSFFLYSKLTVDKSRWQQGNVFSCSVMHEALHNHYTQKSLSLSPGK
9 | 0.58 | ~0.6 | – | – | binds | ~1 | hz1F5v1-IgG1 (Fc fusion) EVQLVESGGGEVQPGGSLRLSCAASGRAINMYAMGWFRQAPGKEREFVAAINWNGAYTQYAESVKGRFTISRDNAKNTLYLQMSSLRAEDTAVYYCSADADYNTYVSPNKRVSYWGQGTLVTVDKTHTCPPCPAPGGPSVFLFPPKPKDTLMISRTPEVTCVVVDVSHEDPEVKFNWYVDGVEVHNAKTKPREEQYNSTYRVVSVLTVLHQDWLNGKEYKCKVSNKALPAPIEKTISKAKGQPREPQVYTLPPSRDELTKNQVSLTCLVKGFYPSDIAVEWESNGQPENNYKTTPPVLDSDGSFFLYSKLTVDKSRWQQGNVFSCSVMHEALHNHYTQKSLSLSPGK
10 | 0.92 | ~1 | – | – | – | – | hz1F5v2-IgG1 (Fc fusion) EVQLVESGGGEVQPGGSLRLSCTASGRAINMYAMGWFRQAPGKEREFVAAINWNGAYTQYAESVKGRFTISRDNAKNTLYLQMSSLRAEDTAVYYCSADADYNTYVSPNKRVSYWGQGTLVTVDKTHTCPPCPAPGGPSVFLFPPKPKDTLMISRTPEVTCVVVDVSHEDPEVKFNWYVDGVEVHNAKTKPREEQYNSTYRVVSVLTVLHQDWLNGKEYKCKVSNKALPAPIEKTISKAKGQPREPQVYTLPPSRDELTKNQVSLTCLVKGFYPSDIAVEWESNGQPENNYKTTPPVLDSDGSFFLYSKLTVDKSRWQQGNVFSCSVMHEALHNHYTQKSLSLSPGK
11 | 0.53 | ~0.6 | ~1 | – | – | – | F3-IgG1 (Fc fusion, also called sdAb F3) EVQLVQSGGGLVQAGGSLRLSCRASGRAINSYNMGWFRQAPGKEREFVSAINWNGARTYYQDALKGRFAISRDNARNTMYLQMNNLKPEDTAVYYCAAAGRWSAAVPSGEDQYNFWGQGTQVTVDKTHTCPPCPAPGGPSVFLFPPKPKDTLMISRTPEVTCVVVDVSHEDPEVKFNWYVDGVEVHNAKTKPREEQYNSTYRVVSVLTVLHQDWLNGKEYKCKVSNKALPAPIEKTISKAKGQPREPQVYTLPPSRDELTKNQVSLTCLVKGFYPSDIAVEWESNGQPENNYKTTPPVLDSDGSFFLYSKLTVDKSRWQQGNVFSCSVMHEALHNHYTQKSLSLSPGK
